Measurements from the supplement of paper PMC10065799, “High-throughput profiling of sequence recognition by tyrosine kinases and SH2 domains using bacterial peptide display” (eLife, 2023).

Target: FGFR1 (UniProt P11362)
Experiment: phosphorylation enrichment, bacterial display (enrichment ratio); higher = better substrate or ligand; peptides without Tyr show the background
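Further: 11-residue human phosphosite peptides and single-mutation variants displayed on the E. coli surface, counted by deep sequencing, each peptide's frequency after selection divided by its frequency in the unselected input library; frequency after pTyr selection over input frequency; kinase dosed for 20-30% of maximal phosphorylation in three min.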

Sequence of FGFR1 (P11362 whole entry, looked up): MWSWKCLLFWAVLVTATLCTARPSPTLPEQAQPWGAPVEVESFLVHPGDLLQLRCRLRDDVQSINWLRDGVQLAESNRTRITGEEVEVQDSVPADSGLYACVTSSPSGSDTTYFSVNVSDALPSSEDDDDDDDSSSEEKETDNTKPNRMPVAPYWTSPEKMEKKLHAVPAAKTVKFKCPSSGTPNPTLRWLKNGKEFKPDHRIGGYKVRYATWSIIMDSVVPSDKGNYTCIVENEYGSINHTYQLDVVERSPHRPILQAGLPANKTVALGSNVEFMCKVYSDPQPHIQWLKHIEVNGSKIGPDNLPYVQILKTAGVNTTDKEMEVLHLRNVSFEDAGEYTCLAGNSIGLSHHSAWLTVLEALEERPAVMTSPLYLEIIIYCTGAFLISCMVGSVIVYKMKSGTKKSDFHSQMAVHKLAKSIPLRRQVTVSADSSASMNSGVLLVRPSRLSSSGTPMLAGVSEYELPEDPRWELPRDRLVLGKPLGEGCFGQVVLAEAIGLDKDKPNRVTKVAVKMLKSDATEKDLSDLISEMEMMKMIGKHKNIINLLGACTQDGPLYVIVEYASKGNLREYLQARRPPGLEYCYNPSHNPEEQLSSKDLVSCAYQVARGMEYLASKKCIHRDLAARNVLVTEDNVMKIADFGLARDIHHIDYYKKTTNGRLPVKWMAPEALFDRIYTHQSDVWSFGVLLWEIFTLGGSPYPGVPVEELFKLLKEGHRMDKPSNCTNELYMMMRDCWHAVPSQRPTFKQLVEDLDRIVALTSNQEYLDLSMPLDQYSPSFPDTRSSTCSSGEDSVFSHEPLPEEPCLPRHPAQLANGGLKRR

Sequence | phosphorylation enrichment
WKKKIYEESST [MOCS2_Y170_E168K] | 0.423
INASGYRVGPA [ACSM1_Y477_I479V] | 0.595
ALTRSYVREKV [CYP2C8_Y243_I244V] | 0.364
GEVLVYVEDPA [FLNA_Y319] | 0.694
LSAPWYLNRIS [HEXA_Y421] | 0.429
QELRRYLKSGV [MICA_Y194] | 0.582
DTFDPYLDVAL [USP36_Y268_YF] | 0.658
AAYNRYDQERF [CDC73_Y293] | 0.521
KHTLSYVDVGT [SDHA_Y629] | 0.724
TDTAAYEERLR [SPTB_Y474_V478L] | 0.668
SMGHRYIEVFK [HNRNPF_Y82] | 0.408
ASQEEYSAMRD [KRAS_Y64_G60S] | 0.714
NSNAAYEESHF [LRIF1_Y714_Q716E] | 0.443
EEQFFYEKAIL [BCCIP_Y257_E254Q] | 0.442
EQMLEYMGQLQ [CFAP45_Y289_E291G] | 0.447
PFRQWYESHFA [RPS8_Y113_YF] | 0.731
AGQEGYDRLRP [RAC1_Y64_D63G] | 0.562

Sequence | phosphorylation enrichment
VTAALYGRLFE [BTD_Y536_YF] | 0.439
GGQVFHNSEYG [FLT4_Y1333_Y1333H] | 0.386
SMEMKYLEEKN [ZAP70_Y451_G448E] | 0.535
ITNLLYHVVSW [GBA_Y412_G416S] | 9.38
SGFESYGSSSS [RPA2_Y9_Y14S] | 0.461
LGSWTYTKTVS [ROS1_Y144] | 1.19
CTSIHYNFMCN [TP53_Y234_T231S_YF] | 0.488
LEEFQYIGESQ [MSH2_Y856] | 0.733
MTRDIYETDYY [INSR_Y1185] | 1.89
MANYVYKAGPS [MAML2_Y515_M514V] | 0.434
FLQTDYTSQVS [FRMPD1_Y846] | 0.442
HPWPQYTTRAP [FNDC1_Y1281] | 0.421
MCDSHYLESRF [CLK1_Y56_S61F] | 0.509
FGGLRCGFGVL [KRTAP20-2_Y13_Y13C_YF] | 0.45
NVADHYGVFKP [ATP6V0D2_Y271_YF] | 0.443
DAVCFYRMENA [NPHS2_Y195_I192V_YF] | 0.698

Target: MERTK (UniProt Q12866)
Sequence (Q12866 whole entry, looked up): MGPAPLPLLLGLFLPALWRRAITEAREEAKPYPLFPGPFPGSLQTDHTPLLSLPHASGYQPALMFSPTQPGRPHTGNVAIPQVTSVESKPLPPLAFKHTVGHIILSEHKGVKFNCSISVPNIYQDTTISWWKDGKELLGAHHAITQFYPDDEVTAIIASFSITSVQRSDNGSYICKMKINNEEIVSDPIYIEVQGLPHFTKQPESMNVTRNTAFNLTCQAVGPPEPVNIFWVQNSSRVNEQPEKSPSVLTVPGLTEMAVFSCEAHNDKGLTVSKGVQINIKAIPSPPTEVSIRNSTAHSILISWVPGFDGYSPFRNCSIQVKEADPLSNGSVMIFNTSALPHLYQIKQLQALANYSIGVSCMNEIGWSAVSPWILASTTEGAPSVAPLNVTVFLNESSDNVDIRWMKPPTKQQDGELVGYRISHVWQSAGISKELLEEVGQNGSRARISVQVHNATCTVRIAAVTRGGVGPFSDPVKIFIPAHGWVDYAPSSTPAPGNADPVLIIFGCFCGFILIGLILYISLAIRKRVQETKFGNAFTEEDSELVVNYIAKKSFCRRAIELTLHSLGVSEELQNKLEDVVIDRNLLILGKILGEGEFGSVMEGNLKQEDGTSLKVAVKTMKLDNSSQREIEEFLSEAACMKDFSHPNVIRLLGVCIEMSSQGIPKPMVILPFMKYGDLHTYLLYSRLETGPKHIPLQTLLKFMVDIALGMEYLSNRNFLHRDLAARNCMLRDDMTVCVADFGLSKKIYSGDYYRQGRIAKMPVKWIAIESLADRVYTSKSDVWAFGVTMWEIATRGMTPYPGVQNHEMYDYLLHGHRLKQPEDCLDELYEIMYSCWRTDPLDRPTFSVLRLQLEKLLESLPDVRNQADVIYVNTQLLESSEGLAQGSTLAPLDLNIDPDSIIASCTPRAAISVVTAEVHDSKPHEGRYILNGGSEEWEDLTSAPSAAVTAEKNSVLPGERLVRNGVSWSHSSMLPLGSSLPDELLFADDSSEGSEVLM
Experiment: as above

Sequence | phosphorylation enrichment
WKKKIYEESST [MOCS2_Y170_E168K] | 0.432
INASGYRVGPA [ACSM1_Y477_I479V] | 0.49
ALTRSYVREKV [CYP2C8_Y243_I244V] | 0.459
GEVLVYVEDPA [FLNA_Y319] | 0.478
LSAPWYLNRIS [HEXA_Y421] | 0.331
QELRRYLKSGV [MICA_Y194] | 0.544
DTFDPYLDVAL [USP36_Y268_YF] | 0.557
AAYNRYDQERF [CDC73_Y293] | 0.518
KHTLSYVDVGT [SDHA_Y629] | 0.295
TDTAAYEERLR [SPTB_Y474_V478L] | 0.482
SMGHRYIEVFK [HNRNPF_Y82] | 0.361
ASQEEYSAMRD [KRAS_Y64_G60S] | 0.496
NSNAAYEESHF [LRIF1_Y714_Q716E] | 0.385
EEQFFYEKAIL [BCCIP_Y257_E254Q] | 0.502
EQMLEYMGQLQ [CFAP45_Y289_E291G] | 0.448
PFRQWYESHFA [RPS8_Y113_YF] | 0.906
AGQEGYDRLRP [RAC1_Y64_D63G] | 0.36

Sequence | phosphorylation enrichment
VTAALYGRLFE [BTD_Y536_YF] | 1.08
GGQVFHNSEYG [FLT4_Y1333_Y1333H] | 0.314
SMEMKYLEEKN [ZAP70_Y451_G448E] | 0.48
ITNLLYHVVSW [GBA_Y412_G416S] | 7.13
SGFESYGSSSS [RPA2_Y9_Y14S] | 0.502
LGSWTYTKTVS [ROS1_Y144] | 0.519
CTSIHYNFMCN [TP53_Y234_T231S_YF] | 0.366
LEEFQYIGESQ [MSH2_Y856] | 0.61
MTRDIYETDYY [INSR_Y1185] | 0.746
MANYVYKAGPS [MAML2_Y515_M514V] | 0.473
FLQTDYTSQVS [FRMPD1_Y846] | 0.386
HPWPQYTTRAP [FNDC1_Y1281] | 0.546
MCDSHYLESRF [CLK1_Y56_S61F] | 0.504
FGGLRCGFGVL [KRTAP20-2_Y13_Y13C_YF] | 0.34
NVADHYGVFKP [ATP6V0D2_Y271_YF] | 0.435
DAVCFYRMENA [NPHS2_Y195_I192V_YF] | 0.695

Target: FGFR3 (UniProt P22607)
Sequence (P22607 whole entry, looked up): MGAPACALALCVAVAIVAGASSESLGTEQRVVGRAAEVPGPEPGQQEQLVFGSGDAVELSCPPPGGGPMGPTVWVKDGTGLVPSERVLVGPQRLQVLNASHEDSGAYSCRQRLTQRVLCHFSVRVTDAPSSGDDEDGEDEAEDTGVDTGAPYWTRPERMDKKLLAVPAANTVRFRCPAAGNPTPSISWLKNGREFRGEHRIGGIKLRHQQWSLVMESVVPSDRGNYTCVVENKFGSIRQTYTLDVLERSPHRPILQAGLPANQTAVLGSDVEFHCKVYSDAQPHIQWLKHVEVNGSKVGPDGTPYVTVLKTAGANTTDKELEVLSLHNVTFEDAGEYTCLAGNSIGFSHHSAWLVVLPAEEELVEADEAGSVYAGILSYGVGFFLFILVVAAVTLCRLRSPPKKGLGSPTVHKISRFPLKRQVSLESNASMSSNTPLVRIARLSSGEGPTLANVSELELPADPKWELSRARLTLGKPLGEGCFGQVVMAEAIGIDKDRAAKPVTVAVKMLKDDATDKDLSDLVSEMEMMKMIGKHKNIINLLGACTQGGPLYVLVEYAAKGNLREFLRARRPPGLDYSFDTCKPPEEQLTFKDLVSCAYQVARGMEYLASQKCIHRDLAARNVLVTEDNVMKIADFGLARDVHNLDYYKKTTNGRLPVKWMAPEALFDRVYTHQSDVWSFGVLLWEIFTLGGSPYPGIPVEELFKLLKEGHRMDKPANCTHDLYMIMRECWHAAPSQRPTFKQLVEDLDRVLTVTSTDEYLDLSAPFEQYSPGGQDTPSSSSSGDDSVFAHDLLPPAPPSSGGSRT
Experiment: as above

Sequence | phosphorylation enrichment
WKKKIYEESST [MOCS2_Y170_E168K] | 0.813
INASGYRVGPA [ACSM1_Y477_I479V] | 0.629
ALTRSYVREKV [CYP2C8_Y243_I244V] | 0.522
GEVLVYVEDPA [FLNA_Y319] | 0.81
LSAPWYLNRIS [HEXA_Y421] | 0.533
QELRRYLKSGV [MICA_Y194] | 0.804
DTFDPYLDVAL [USP36_Y268_YF] | 0.857
AAYNRYDQERF [CDC73_Y293] | 0.538
KHTLSYVDVGT [SDHA_Y629] | 0.589
TDTAAYEERLR [SPTB_Y474_V478L] | 0.71
SMGHRYIEVFK [HNRNPF_Y82] | 0.483
ASQEEYSAMRD [KRAS_Y64_G60S] | 0.68
NSNAAYEESHF [LRIF1_Y714_Q716E] | 0.614
EEQFFYEKAIL [BCCIP_Y257_E254Q] | 0.588
EQMLEYMGQLQ [CFAP45_Y289_E291G] | 0.595
PFRQWYESHFA [RPS8_Y113_YF] | 0.524
AGQEGYDRLRP [RAC1_Y64_D63G] | 0.642

Sequence | phosphorylation enrichment
VTAALYGRLFE [BTD_Y536_YF] | 0.527
GGQVFHNSEYG [FLT4_Y1333_Y1333H] | 0.535
SMEMKYLEEKN [ZAP70_Y451_G448E] | 1.07
ITNLLYHVVSW [GBA_Y412_G416S] | 7.83
SGFESYGSSSS [RPA2_Y9_Y14S] | 0.599
LGSWTYTKTVS [ROS1_Y144] | 1.44
CTSIHYNFMCN [TP53_Y234_T231S_YF] | 0.571
LEEFQYIGESQ [MSH2_Y856] | 1.11
MTRDIYETDYY [INSR_Y1185] | 1.93
MANYVYKAGPS [MAML2_Y515_M514V] | 0.508
FLQTDYTSQVS [FRMPD1_Y846] | 0.538
HPWPQYTTRAP [FNDC1_Y1281] | 0.54
MCDSHYLESRF [CLK1_Y56_S61F] | 0.603
FGGLRCGFGVL [KRTAP20-2_Y13_Y13C_YF] | 0.686
NVADHYGVFKP [ATP6V0D2_Y271_YF] | 0.408
DAVCFYRMENA [NPHS2_Y195_I192V_YF] | 1.06

Target: Fes (UniProt P07332)
Sequence (P07332 whole entry, looked up): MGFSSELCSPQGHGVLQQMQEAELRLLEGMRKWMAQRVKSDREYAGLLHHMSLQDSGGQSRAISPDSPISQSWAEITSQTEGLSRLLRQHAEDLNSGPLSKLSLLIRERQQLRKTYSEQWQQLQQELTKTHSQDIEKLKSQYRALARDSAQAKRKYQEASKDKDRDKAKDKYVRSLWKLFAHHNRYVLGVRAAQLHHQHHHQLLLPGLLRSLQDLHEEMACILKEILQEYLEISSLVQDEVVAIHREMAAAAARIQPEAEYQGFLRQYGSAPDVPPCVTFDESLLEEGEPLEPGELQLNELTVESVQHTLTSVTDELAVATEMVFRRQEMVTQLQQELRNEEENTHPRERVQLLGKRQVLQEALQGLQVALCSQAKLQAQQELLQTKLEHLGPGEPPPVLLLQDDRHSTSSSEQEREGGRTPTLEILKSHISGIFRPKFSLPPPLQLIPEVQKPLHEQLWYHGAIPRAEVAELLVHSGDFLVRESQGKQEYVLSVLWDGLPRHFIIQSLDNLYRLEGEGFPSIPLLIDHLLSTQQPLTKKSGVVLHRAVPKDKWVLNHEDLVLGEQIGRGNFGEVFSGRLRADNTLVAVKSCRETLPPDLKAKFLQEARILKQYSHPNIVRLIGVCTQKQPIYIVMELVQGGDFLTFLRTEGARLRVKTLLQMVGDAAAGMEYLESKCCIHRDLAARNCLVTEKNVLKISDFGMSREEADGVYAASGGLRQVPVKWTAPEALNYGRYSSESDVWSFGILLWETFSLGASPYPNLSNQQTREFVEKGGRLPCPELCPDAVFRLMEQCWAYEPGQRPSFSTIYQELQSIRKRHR
Experiment: as above

Sequence | phosphorylation enrichment
WKKKIYEESST [MOCS2_Y170_E168K] | 1.05
INASGYRVGPA [ACSM1_Y477_I479V] | 0.901
ALTRSYVREKV [CYP2C8_Y243_I244V] | 0.532
GEVLVYVEDPA [FLNA_Y319] | 1.41
LSAPWYLNRIS [HEXA_Y421] | 0.797
QELRRYLKSGV [MICA_Y194] | 0.787
DTFDPYLDVAL [USP36_Y268_YF] | 1.24
AAYNRYDQERF [CDC73_Y293] | 0.752
KHTLSYVDVGT [SDHA_Y629] | 0.685
TDTAAYEERLR [SPTB_Y474_V478L] | 0.914
SMGHRYIEVFK [HNRNPF_Y82] | 1
ASQEEYSAMRD [KRAS_Y64_G60S] | 0.946
NSNAAYEESHF [LRIF1_Y714_Q716E] | 0.919
EEQFFYEKAIL [BCCIP_Y257_E254Q] | 0.999
EQMLEYMGQLQ [CFAP45_Y289_E291G] | 1.01
PFRQWYESHFA [RPS8_Y113_YF] | 1.11
AGQEGYDRLRP [RAC1_Y64_D63G] | 0.712

Sequence | phosphorylation enrichment
VTAALYGRLFE [BTD_Y536_YF] | 0.734
GGQVFHNSEYG [FLT4_Y1333_Y1333H] | 0.712
SMEMKYLEEKN [ZAP70_Y451_G448E] | 1.47
ITNLLYHVVSW [GBA_Y412_G416S] | 1.35
SGFESYGSSSS [RPA2_Y9_Y14S] | 0.658
LGSWTYTKTVS [ROS1_Y144] | 2.38
CTSIHYNFMCN [TP53_Y234_T231S_YF] | 0.918
LEEFQYIGESQ [MSH2_Y856] | 1.62
MTRDIYETDYY [INSR_Y1185] | 1.13
MANYVYKAGPS [MAML2_Y515_M514V] | 0.643
FLQTDYTSQVS [FRMPD1_Y846] | 0.805
HPWPQYTTRAP [FNDC1_Y1281] | 0.603
MCDSHYLESRF [CLK1_Y56_S61F] | 0.867
FGGLRCGFGVL [KRTAP20-2_Y13_Y13C_YF] | 1.14
NVADHYGVFKP [ATP6V0D2_Y271_YF] | 0.691
DAVCFYRMENA [NPHS2_Y195_I192V_YF] | 1.23
